Data: patent US20240400708A1
Numbering of substitutions follows the chain as printed. Names and notes keep the numbering of the source. One block for each binder: values may come before it.

How the values were obtained:
[1] = molecular target: feline FcRn complex (FcRn-α subunit and β-microglobulin) (feline); assay: SPR (Biacore), FcRn on SA chip, pH 7.4
[2] = molecular target: feline FcRn complex (FcRn-α subunit and β-microglobulin) (feline); assay: SPR (Biacore), FcRn on SA chip, pH 6
[3] = molecular target: Feline FcRn complex (FcRn-alpha subunit and beta-microglobulin) (feline); assay: SPR (Biacore), feline FcRn captured on SA chip, IgG flowed over, pH 6
[4] = molecular target: Feline FcRn complex (FcRn-alpha subunit and beta-microglobulin) (feline); assay: SPR (Biacore), feline FcRn captured on SA chip, IgG flowed over, pH 7.4

B2: feline IgG1a Fc mutant S428L, S252W (antibody, part only; not given: Variable domains, not shown: another chain or arm of the molecule; small tags and cut ends)
constant: ASTTAPSVFPLAPSCGTTSGATVALACLVLGYFPEPVTVSWNSGALTSGVHTFPAVLQASGLYSLSSMVTVPSSRWLSDTFTCNVAHPPSNTKVDKTVRKTDHPPGPKPCDCPKCPPPEMLGGPSIFIFPPKPKDTLWISRTPEVTCLVVDLGPDDSDVQITWFVDNTQVYTAKTSPREEQFNSTYRVVSVLPILHQDWLKGKEFKCKVNSKSLPSPIERTISKAKGQPHEPQVYVLPPAQEELSRNKVSVTCLIKSFHPPDIAVEWEITGQPEPENNYRTTPPQLDSDGTYFVYSKLSVDRSHWQRGNTYTCSVLHEALHSHHTQKSLTQSPGK
Kd [3]: 6.14 nM

B10: feline IgG1a Fc mutant Q311L, S428L (antibody, part only; not given: Variable domains, not shown: another chain or arm of the molecule; small tags and cut ends)
constant: B2 constant with W138S, Q197L
Kd [3]: 6.03 nM

B11: feline IgG1a Fc mutant Q311W, S428M (antibody, part only; not given: Variable domains, not shown: another chain or arm of the molecule; small tags and cut ends)
constant: B2 constant with W138S, Q197W, L316M
Kd [3]: 6.51 nM

B13: feline IgG1a Fc mutant Q311M, S428L (antibody, part only; not given: Variable domains, not shown: another chain or arm of the molecule; small tags and cut ends)
constant: B2 constant with W138S, Q197M
Kd [3]: 6.44 nM

B15: feline IgG1a Fc mutant S428L, S252H (antibody, part only; not given: variable domains and light chain, not shown: another chain or arm of the molecule; small tags and cut ends)
constant: B2 constant with W138H
Kd [3]: 5.94 nM

B16: feline IgG1a Fc mutant Q311W, S428Y (antibody, part only; not given: Variable domains, not shown: another chain or arm of the molecule)
constant: B2 constant with W138S, Q197W, L316Y
Kd [3]: 6.35 nM

B17: feline IgG1a Fc mutant S428L, S434F (antibody, part only; not given: Variable domains, not shown: another chain or arm of the molecule; small tags and cut ends)
constant: B2 constant with W138S, S322F
Kd [3]: 1.39 nM
Kd [4]: 46.4 nM

B18: feline IgG1a Fc mutant Q311Y, S428Y (antibody, part only; not given: Variable domains, not shown: another chain or arm of the molecule)
constant: B2 constant with W138S, Q197Y, L316Y
Kd [3]: 5.57 nM

B19: feline IgG1a Fc mutant S428L, S434W (antibody, part only; not given: Variable domains, not shown: another chain or arm of the molecule; small tags and cut ends)
constant: B2 constant with W138S, S322W
Kd [3]: 1.02 nM
Kd [4]: 41.8 nM

B20: feline IgG1a Fc mutant Q311H, S428Y (antibody, part only; not given: Variable domains, not shown: another chain or arm of the molecule)
constant: B2 constant with W138S, Q197H, L316Y
Kd [3]: 6.92 nM

B21: feline IgG1a Fc mutant S428L, S434R (antibody, part only; not given: variable domains and light chain, not shown: another chain or arm of the molecule; small tags and cut ends)
constant: B2 constant with W138S, S322R
Kd [3]: 4.66 nM

B22: feline IgG1a Fc mutant Q311L, S428Y (antibody, part only; not given: Variable domains, not shown: another chain or arm of the molecule)
constant: B2 constant with W138S, Q197L, L316Y
Kd [3]: 4.74 nM

B23: feline IgG1a Fc mutant Q311R, S428Y (antibody, part only; not given: Variable domains, not shown: another chain or arm of the molecule; small tags and cut ends)
constant: B2 constant with W138S, Q197R, L316Y
Kd [3]: 4.81 nM

B25: feline IgG1a Fc mutant S428L, S252F (antibody, part only; not given: Variable domains, not shown: another chain or arm of the molecule; small tags and cut ends)
constant: B2 constant with W138F
Kd [3]: 6.52 nM

B27: feline IgG1a Fc mutant Q311H, S428L (antibody, part only; not given: Variable domains, not shown: another chain or arm of the molecule; small tags and cut ends)
constant: B2 constant with W138S, Q197H
Kd [3]: 7.19 nM

The remaining lines, values ahead:

Kd [1]: 38.9 nM
Kd [2]: 0.923 nM
B1: feline IgG1a mutant ID No. 363: S252Y, S434R, D399T (antibody, part only; not given: Variable domains, not shown: another chain or arm of the molecule)
constant: B2 constant with W138Y, D287T, L316S, S322R

Kd [1]: 30.3 nM
Kd [2]: 0.715 nM
B3: feline IgG1a mutant ID No. 374: S252Y, S434R, Q311Y (antibody, part only; not given: Variable domains, not shown: another chain or arm of the molecule)
constant: B2 constant with W138Y, Q197Y, L316S, S322R

Kd [3]: 6.62 nM
B4: feline IgG1a Fc mutant S428Y, S252F (antibody, part only; not given: Variable domains, not shown: another chain or arm of the molecule)
constant: B2 constant with W138F, L316Y

Kd [1]: 10.7 nM
Kd [2]: 0.488 nM
B5: feline IgG1a mutant ID No. 371: S252Y, S434R, Q311K (antibody, part only; not given: Variable domains, not shown: another chain or arm of the molecule)
constant: B2 constant with W138Y, Q197K, L316S, S322R

Kd [3]: 5.12 nM
Kd [4]: 124 nM
B6: feline IgG1a Fc mutant S428M, S252Y (antibody, part only; not given: Variable domains, not shown: another chain or arm of the molecule; small tags and cut ends)
constant: B2 constant with W138Y, L316M

Kd [1]: 21.9 nM
Kd [2]: 0.443 nM
B7: feline IgG1a mutant ID No. 372: S252Y, S434R, Q311M (antibody, part only; not given: Variable domains, not shown: another chain or arm of the molecule)
constant: B2 constant with W138Y, Q197M, L316S, S322R

Kd [1]: 31.3 nM
Kd [2]: 0.974 nM
B8: feline IgG1a mutant ID No. 370: S252Y, S434R, Q311H (antibody, part only; not given: variable domains and light chain, not shown: another chain or arm of the molecule)
constant: B2 constant with W138Y, Q197H, L316S, S322R

Kd [3]: 3.85 nM
B9: feline IgG1a Fc mutant S428Y, S434R (antibody, part only; not given: Variable domains, not shown: another chain or arm of the molecule; small tags and cut ends)
constant: B2 constant with W138S, L316Y, S322R

Kd [3]: 5.9 nM
B12: feline IgG1a Fc mutant S428M, S252F (antibody, part only; not given: Variable domains, not shown: another chain or arm of the molecule; small tags and cut ends)
constant: B2 constant with W138F, L316M

Kd [3]: 0.888 nM
Kd [4]: 25.2 nM
B14: feline IgG1a Fc mutant S428M, S434Y (antibody, part only; not given: Variable domains, not shown: another chain or arm of the molecule; small tags and cut ends)
constant: B2 constant with W138S, L316M, S322Y

Kd [1]: 26.5 nM
Kd [2]: 0.442 nM
B24: feline IgG1a mutant ID No. 369: S252Y, S434R, P247L (antibody, part only; not given: Variable domains, not shown: another chain or arm of the molecule)
constant: B2 constant with P133L, W138Y, L316S, S322R

Kd [3]: 8.58 nM
B26: feline IgG1a Fc mutant S428Y, S252Y (antibody, part only; not given: Variable domains, not shown: another chain or arm of the molecule; small tags and cut ends)
constant: B2 constant with W138Y, L316Y

Kd [1]: 24.4 nM
Kd [2]: 0.732 nM
B28: feline IgG1a mutant ID No. 364: S252Y, S434R, D401R (antibody, part only; not given: Variable domains, not shown: another chain or arm of the molecule)
constant: B2 constant with W138Y, D289R, L316S, S322R
